Target: T1, human thrombin (Homo sapiens, UniProt P00734)
T1 construct: biotin (chemical label)
Assay: mRNA display selection against thrombin, selected sequences ranked by next-generation-sequencing frequency
Format: binding
Settings: for percentage (%): share of recovered sequences; for counts: top binders ranked by frequency
Description: 1 ml of the fusions from the previous step were added to 50 ul of M270 SA beads blocked with TBSTE+2% BSA at room temperature, and were incubated at room temperature for 30 min, and the supernatant was removed for binding with biotinylated thrombin.
8) Pre-Selected Fusions were Bound to 3 ul Biotinylated Human Thrombin at 1 U/ul at 4° C. for 1 h with Rotation
25 ul of M270 SA bead suspension was washed and blocked with TBSTE+2% BSA. The beads were then collected, mixed with 1 ml of each fusion/target complex, and incubated at room temperature for 30 min. The mixture was washed 3× in TBSTE, transferred to a new tube, and the cDNA was eluted with 50 ul of 0.1 N NaOH at room temperature for 3 min. Then 2.5 ul 3M NaAc, pH5.5. BioRad spin column was added and the volume was adjusted to 147 ul with H2O.
The following rounds of selections (3-5) were carried out following the above procedure with increased stringency (e.g. lower amounts of fusion molecule input and increased number of washing steps). After each round of selection, similar PCR amplification was done to prepare the DNA library for the next round of selection.
In summary, for example, one round of mRNA display consisted of the following steps: in vitro transcription, DNase digestion, conjugation with the puromycin oligo linker, in vitro translation/fusion formation, FLAG fusion molecule purification, reverse transcription, pre-selection or functional selection, and regeneration of the selected sequences. Briefly, the cDNA library was in vitro transcribed using T7 RNA polymerase, the mRNA templates with puromycin at the 3′ ends were generated by crosslinking with an oligonucleotide containing a psoralen residue and a puromycin residue at its 5′ and 3′ ends, respectively, and in vitro translation was performed using an NEB Purexpress Δ123 kit. The desired mRNA-protein fusions were then isolated from the translation reaction mixture using anti-FLAG magnetic beads. The fusion molecules were then converted into DNA/RNA hybrids through reverse transcription. This step removed secondary mRNA structures that might interfere with the subsequent selection.
To analyze the results of the selection, the DNA libraries were amplified after each round of selection using specially-designed sequencing primers that harbor Illumina next-generation-sequencing adapters. The libraries were mixed, further purified and next generation sequencing was performed. Peptide sequences recovered after each round of selection were called out according to their unique sequencing barcode and further comparison and analysis was done. Next-generation-sequencing provided the advantages of high throughput and a more complete overview of the selected species.
When thrombin was used as a target, a total of three rounds of selections were carried out. The selection pressure was increased by increasing the washing stringency (from three times to five times then to ten times for selection round 1, 2 and 3). Table 1 illustrates the top binders (ranked according to their frequency) after each round of selection. After selection round 3, more than 30% of the selected peptides contained the conserved “RDPGR” (SEQ ID NO:331) motif. The most abundant peptide “RDPGRLIFQS” (SEQ ID NO:332) was chosen for further analysis.

[1] = Round 1 of selection, three washes
[2] = Round 2 of selection, five washes
[3] = Round 3 of selection, ten washes

Row | percentage (%) [1] | counts [1] | percentage (%) [2] | counts [2] | percentage (%) [3] | counts [3] | Substance
1 | 1.2E−03% | 39 |  |  |  |  | LKQTDFRTPI (MGCTSVHQETKKYQSLKQTDFRTPISYTYNYEHVDVWGCGSADYKDDDDKKK)
2 | 1.2E−03% | 38 |  |  |  |  | LQRAISSYSR (MGCTSVHQETKKYQSLQRAISSYSRSYTYNYEHVDVWGCGSADYKDDDDKKK)
3 | 1.3E−03% | 42 |  |  |  |  | TQPKLTIEQR
4 | 1.3E−03% | 43 |  |  |  |  | PLIHPRRGYA (MGCTSVHQETKKYQSPLIHPRRGYASYTYNYEHVDVWGCGSADYKDDDDKKK)
5 | 1.5E−03% | 47 |  |  |  |  | SQSERATPRY (MGCTSVHQETKKYQSSQSERATPRYSYTYNYEHVDVWGCGSADYKDDDDKKK)
6 |  |  |  |  | 0.031% | 258 | RSHGQFSFTF (MGCTSVHQETKKYQSRSHGQFSFTFSYTYNYEHVDVWGCGSADYKDDDDKKK)
7 |  |  |  |  | 0.027% | 224 | SLFVEYRITY (MGCTSVHQETKKYQSSLFVEYRITYSYTYNYEHVDVWGCGSADYKDDDDKKK)
8 |  |  | 0.0052% | 86 |  |  | ETRIYIRFHT (MGCTSVHQETKKYQSETRIYIRFHTSYTYNYEHVDVWGCGSADYKDDDDKKK)
9 |  |  | 0.0051% | 84 | 0.021% | 175 | VTSTYMFMYA
10 |  |  | 0.0170% | 278 | 0.084% | 702 | RDPYNVLISL (MGCTSVHQETKKYQSRDPYNVLISLSYTYNYEHVDVWGCGSADYKDDDDKKK)
11 | 1.2E−03% | 38 |  |  |  |  | KCCTSMVIQL (MGCTSVHQETKKYQSKCCTSMVIQLSYTYNYEHVDVWGCGSADYKDDDDKKK)
12 |  |  |  |  | 0.020% | 164 | QFHLEFAFTL (MGCTSVHQETKKYQSQFHLEFAFTLSYTYNYEHVDVWGCGSADYKDDDDKKK)
13 |  |  | 0.0475% | 781 | 1.144% | 9534 | RDPGRIVFNN (MGCTSVHQETKKYQSRDPGRIVFNNSYTYNYEHVDVWGCGSADYKDDDDKKK)
14 |  |  | 0.0993% | 1632 | 10.038% | 83638 | RDPGRVIFEI (MGCTSVHQETKKYQSRDPGRVIFEISYTYNYEHVDVWGCGSADYKDDDDKKK)
15 | 1.4E−03% | 46 |  |  |  |  | RFHLFILGTS (MGCTSVHQETKKYQSRFHLFILGTSSYTYNYEHVDVWGCGSADYKDDDDKKK)
16 |  |  | 0.1608% | 2642 | 20.512% | 170914 | RDPGRLIFQS (MGCTSVHQETKKYQSRDPGRLIFQSSYTYNYEHVDVWGCGSADYKDDDDKKK)
17 |  |  | 0.0052% | 86 |  |  | RTKIK*NGL*
18 |  |  | 0.0046% | 75 |  |  | VVEFHFKWCI
19 |  |  |  |  | 0.023% | 195 | SIEFGLTFSF (MGCTSVHQETKKYQSSIEFGLTFSFSYTYNYEHVDVWGCGSADYKDDDDKKK)
20 | 1.4E−03% | 44 |  |  |  |  | PPVLPQLVLL (MGCTSVHQETKKYQSPPVLPQLVLLSYTYNYEHVDVWGCGSADYKDDDDKKK)
21 | 1.3E−03% | 42 | 0.0109% | 179 |  |  | HRLQIATVYT (MGCTSVHQETKKYQSHRLQIATVYTSYTYNYEHVDVWGCGSADYKDDDDKKK)
22 | 1.2E−03% | 40 |  |  |  |  | HCDTLELRPA (MGCTSVHQETKKYQSHCDTLELRPASYTYNYEHVDVWGCGSADYKDDDDKKK)
23 |  |  |  |  | 0.025% | 211 | QMSFRFEVRV (MGCTSVHQETKKYQSQMSFRFEVRVSYTYNYEHVDVWGCGSADYKDDDDKKK)

Row | Substance | percentage (%) [1] | counts [1] | percentage (%) [2] | counts [2] | percentage (%) [3] | counts [3]
24 | AAVRLNSSS* |  |  | 0.0046% | 75 |  | 

— patent US20160312212A1, “COW ANTIBODY SCAFFOLD POLYPEPTIDE METHOD AND COMPOSITION” (Roche Sequencing Solutions, Inc., priority 2015, published 2016)
